This note sets out measurements from publication PMC4439613, “TRIP13 is a protein-remodeling AAA+ ATPase that catalyzes MAD2 conformation switching” (eLife, 2015).

To fix the notation:
B1: Mus musculus TRIP13 (enzyme, M. musculus, UniProt Q3UA06 1-432, looked up)
chain: MDEAVGDLKQALPCVAESPAVHVEVLQRSGSTAKKEDIKSSVYRLLNRHNIVFGDYVWTEFDDPFLSRNVQSVSIVDTELKAKDPQPIDLSACTIALHIFQLNEEGPSSENLDEETENIIAASHWVLPAAEFHGLWDSLVYDVEVKSHLLDYVMTTVLFSDKNVDSNLITWNRVVLLHGPPGTGKTSLCKALAQKLTIRLSSRYRYGQLIEINSHSLFSKWFSESGKLVTKMFQKIQDLIDDKEALVFVLIDEVESLTAARNACRAGAEPSDAIRVVNAVLTQIDQIKRHSNVVILTTSNITEKIDVAFVDRADIKQYIGPPSAAAIFKIYLSCLEELMKCQIIYPRQQLLTLRELEMIGFIENNVSKLSLLLSEISRKSEGLSGRVLRKLPFLAHALYIQAPSVTIEGFLQALSLAVDKQFEEKKKLSAYV
notes: TRIP13, M. musculus, full length; Mixture of oligomeric states from monomer to hexamer by SEC-MALS; also called wild-type TRIP13; source: E. coli Rosetta 2 (DE3) pLysS, purified (Ni-NTA, Hitrap Q ion exchange, Superdex 200 SEC); not shown: His6, N-terminal, cleaved
B2: M. musculus TRIP13^E253Q (enzyme, UniProt Q3UA06 1-432, looked up)
chain: B1 chain with E253Q
notes: TRIP13, M. musculus, full length, Walker B mutation E253Q; also called Walker B mutant; ATP hydrolysis-defective TRIP13; source: E. coli Rosetta 2 (DE3) pLysS, purified (Ni-NTA, Hitrap Q ion exchange, Superdex 200 SEC); not shown: His6, N-terminal, cleaved
B3: TRIP13 (Mus musculus; W221A) (protein)
chain: B1 chain with W221A
notes: full-length, N-terminal His6 tag removed with TEV protease, E. coli Rosetta 2 (DE3) pLysS
B4: M. musculus MAD2 (wild type) (natural protein, UniProt Q9Z1B5 1-205, looked up)
chain: MAQQLAREQGITLRGSAEIVAEFFSFGINSILYQRGIYPSETFTRVQKYGLTLLTTTDPELIKYLNNVVEQLKEWLYKCSVQKLVVVISNIESGEVLERWQFDIECDKTAKEEGVRREKSQKAIQDEIRSVIRQITATVTFLPLLEVSCSFDLLIYTDKDLVVPEKWEESGPQFITNCEEVRLRSFTTTIHKVNSMVAYKTPVND
notes: MAD2, M. musculus, full length; Predominantly dimeric by SEC-MALS; also called WT MAD2; wild-type MAD2 dimer; source: E. coli Rosetta 2 (DE3) pLysS, purified (Ni-NTA, Hitrap Q ion exchange, Superdex 200 SEC); not shown: His6, N-terminal, cleaved
B5: M. musculus C-MAD2^R133A (closed conformer of the monomeric MAD2 R133A variant) (natural protein, UniProt Q9Z1B5 1-205, looked up)
chain: B4 chain with R133A
notes: MAD2, M. musculus, full length, dimerization-defective mutation R133A; the closed conformer, purified apart from the open one by anion exchange; also called closed MAD2; source: E. coli Rosetta 2 (DE3) pLysS, purified; closed conformer peak separated by anion exchange; not shown: His6, N-terminal, cleaved
B6: M. musculus p31(comet):C-MAD2^R133A complex (complex)
chain 1: MAASGEEDMSELSPAAAPNLDWYEKPEETHAPEVDLETVIPPAQEPSNPAEPFCPRDLVPVVFPGPVSQEDCCQFTCELLKHILYQRHQLPLPYEQLKHFYRKVPQAEDTARKKAWLATEARNRKCQQALAELESVLSHLRDFFARTLVPQVLILLGGNALSPKEFYELDLSRLAPFGVDQGLNTAACLRRLFRAIFLADPFSELQTPPLMGTIVMVQGHRDCGEDWFQPKLNYRVPSRGHKLTVTLSCGRPSVPAMASEDYIWFQAPVTLKGFHE
chain 2: B4 chain with R133A
notes: p31(comet), M. musculus, full length; MAD2, M. musculus, full length, R133A, closed conformer; Heterodimer of m12 and m9; also called p31(comet):MAD2; source: formed from separately purified proteins (E. coli Rosetta 2 (DE3) pLysS); not shown: His6, N-terminal, cleaved; copies: 1 + 1
B7: Caenorhabditis elegans PCH-2 (enzyme, C. elegans, UniProt Q09535 1-424, looked up)
chain: MHEPMKTLKNIHAEIRICQKFPKSTVQKRFSEFEELIKAASKNARNWKPISSVELFQGDSSLNELFEKLVIGTCELRDGELFENVNDLTINPSNIHVYKLHKDGPLSQNIGDDDGDESIIGSQLWQLPCVEFDSIWENLIYDSNLKNEVMSYVAALARLSEKHVNTKIINVNRLILLTGPPGTGKTSLCKGLAQHLSIRMNDKYSKSVMLEINSHSLFSKWFSESGKLVQKMFDQIDELAEDEKCMVFVLIDEVESLGMCRESSSSRSEPSDAIRAVNALLTQIDRIRRRDNVLILCTSNLESTLDKALVDRADIVKNVGQPSDFARYSMLKSSIMELARIGVVIDNEVHTDYWPQDICDTKAPRNEFTEILFKIAQEARGLSGRAISMLPTLVYSKSPEETITLPNCMNLFLEAVKERLSRNN
notes: PCH-2 (TRIP13 ortholog), C. elegans, full length, 424 residues; Selenomethionine-derivatised protein was used for phasing only; two subunits of the hexamer carry ADP in the crystal; also called C. elegans TRIP13 ortholog; wild-type PCH-2; source: E. coli Rosetta 2 (DE3) pLysS, purified (Ni-NTA, Hitrap Q ion exchange, Superdex 200 SEC); not shown: His6, N-terminal, cleaved
B8: C. elegans PCH-2^F222A (enzyme, UniProt Q09535 1-424, looked up)
chain: B7 chain with F222A
notes: PCH-2, C. elegans, full length, pore loop mutation F222A; also called pore loop mutant F222A; source: E. coli Rosetta 2 (DE3) pLysS, purified (Ni-NTA, Hitrap Q ion exchange, Superdex 200 SEC); not shown: His6, N-terminal, cleaved
B9: C. elegans PCH-2 'pore loop AG' mutant (enzyme, UniProt Q09535 1-424, looked up)
chain: B7 chain with F218A, S219G, K220A, W221A, F222G, S223A, E224A, S225A, K227A
notes: also called PCH-2^AG; source: E. coli Rosetta 2 (DE3) pLysS, purified (Ni-NTA, Hitrap Q ion exchange, Superdex 200 SEC); not shown: His6, N-terminal, cleaved
B10: C. elegans PCH-2^W221A (enzyme, UniProt Q09535 1-424, looked up)
chain: B7 chain with W221A
notes: PCH-2, C. elegans, full length, pore loop mutation W221A; also called pore loop mutant W221A; source: E. coli Rosetta 2 (DE3) pLysS, purified (Ni-NTA, Hitrap Q ion exchange, Superdex 200 SEC); not shown: His6, N-terminal, cleaved

Positions count from the first letter of the chain named. In names and notes the source's numbering stands.

The target in one data set is T1, PCH-2 (Caenorhabditis elegans, UniProt Q09535).
T1 construct: full-length (424 residues), N-terminal His6 tag removed with TEV protease, E. coli Rosetta 2 (DE3) pLysS
T1 sequence (Q09535 1-424): B7 chain
Briefly: X-ray crystal structure, […] Å. The format is binding. The following applies: ATPase active site of chains B and E; ADP co-purified, no nucleotide added.

Data set [1] concerns the target C. elegans MAD-2 (MDF-2) (C. elegans). Briefly: SEC-MALS; single purified proteins on Superdex 200 10/300 GL; PCH-2 and TRIP13 with and without added nucleotides. In general terms: SEC sorts molecules by how far they enter the pores of the column.
Data set [2] concerns the molecule itself. Described as above.
Substrate in data set [3]: Nc1ncnc2c1ncn2[C@@H]1O[C@H](COP(=O)(O)OP(=O)(O)OP(=O)(O)O)[C@@H](O)[C@H]1O
Briefly: enzyme-coupled ATPase assay (pyruvate kinase / lactate dehydrogenase, NADH). The format is biochemical, Mus musculus. Conditions: basal, pH 8.5, 27 °C, 10 mM MgCl2, 200 mM NaCl, kcat per hexamer.

Data set [4] addresses T2, His6-tagged M. musculus p31(comet) (M. musculus, UniProt Q9DCX1 1-276).
T2 construct: p31(comet), M. musculus, full length; The same construct as m12 with the TEV-cleavable His6 tag left on for the Ni2+ pull-down; also called His6-tagged p31(comet); source: E. coli Rosetta 2 (DE3) pLysS, purified; not shown: His6, N-terminal, kept
T2 sequence (looked up): B6 chain 1
Briefly: pull-down; Ni2+ pull-down: 300 pmol His6-tagged p31(comet) with 450 pmol untagged MAD2 in 50 μl (20 mM Tris-HCl pH 7.5 or 8.5, 200 mM NaCl, 20 mM imidazole, 0.1% NP-40), 20°C, Ni-NTA magnetic beads, Coomassie. Conditions: both partners purified.

Data set [5] deals with T3, M. musculus p31(comet) (wild type, tag cleaved) (M. musculus, UniProt Q9DCX1 1-276).
T3 construct: p31(comet), M. musculus, full length; also called wild-type p31(comet); source: E. coli Rosetta 2 (DE3) pLysS, purified (Ni-NTA, Hitrap Q ion exchange, Superdex 200 SEC); not shown: His6, N-terminal, cleaved
T3 sequence (looked up): B6 chain 1
The data set is described as follows: SEC; as a8 but mixtures of two of the three proteins (one left out). Conditions: both partners purified.

For data set [6], the target named is B2. The data set is described as follows: SEC; equimolar (10 nanomoles each) TRIP13^E253Q, p31(comet) and C-MAD2^R133A in 300 μl, 20 mM Tris-HCl pH 7.5, 300 mM NaCl, 2 mM ATP, on ice 30 min; Superdex 200 Increase 10/300 GL with 0.1 mM ATP; Coomassie gels of fractions. The following applies: both partners purified.
For data set [7], the target named is B2. The data set is described as follows: SEC-MALS; TRIP13^E253Q with p31(comet) and C-MAD2^R133A, protocol as for the size exclusion analysis. Conditions: both partners purified.
Substrate in data set [8]: Nc1ncnc2c1ncn2[C@@H]1O[C@H](COP(=O)(O)OP(=O)(O)OP(=O)(O)O)[C@@H](O)[C@H]1O
Briefly: enzyme-coupled ATPase assay (pyruvate kinase / lactate dehydrogenase, NADH). Format: biochemical, Caenorhabditis elegans. The following applies: basal, pH 8.5, 27 °C, 10 mM MgCl2, 200 mM NaCl, kcat per hexamer.

Data set [9] deals with the molecule itself. Briefly: SEC; PCH-2 pore loop mutants compared with wild type on a size-exclusion column.
Substrate in data set [10]: Nc1ncnc2c1ncn2[C@@H]1O[C@H](COP(=O)(O)OP(=O)(O)OP(=O)(O)O)[C@@H](O)[C@H]1O
The data set is described as follows: enzyme-coupled ATPase assay (pyruvate kinase / lactate dehydrogenase, NADH). Format: biochemical, Caenorhabditis elegans. Conditions: basal, pH 8.5, 27 °C, 10 mM MgCl2, 200 mM NaCl, kcat per hexamer. From the text:
enzyme-coupled ATPase assay (pyruvate kinase / lactate dehydrogenase, NADH) on PCH-2 | the kcat of PCH-2^W221A around threefold higher than that of the wild-type enzyme
This is another data set of the same source.

With `Nc1ncnc2c1ncn2[C@@H]1O[C@H](COP(=O)(O)OP(=O)(O)O)[C@@H](O)[C@H]1O` [ADP], the “X-ray crystal structure, 2.3 Å” value at PCH-2 was “two subunits in the hexamer (chains B and E) are bound to ADP”.
In data set [1], “C. elegans MAD-2 (MDF-2) (natural protein)” came in with a stoichiometry N of 2.
As for B1, the “stoichiometry N” value in data set [2] was at most 6. Further, in data set [3], the Km was 13.9 ± 0.6 µM and the kcat is recorded as 8.7 +/- 0.1 ATP min^-1.
For the molecule B2, the “stoichiometry N” value in data set [2] came out at 6.
In the case of B3, in data set [3], the Km was 24.4 ± 1.3 µM and the kcat is 18.7 +/- 0.2 ATP min^-1.
In the case of B4, the binding result in data set [4] was “binds”. The “stoichiometry N” value in data set [2] was 2.
In the case of B5, in [5], the binding result is “binds”.
As to B6, the “stoichiometry N” value with M. musculus TRIP13^E253Q [6] was ~6 TRIP13^E253Q : p31(comet):MAD2 (molar ratio); with M. musculus TRIP13^E253Q [7] it was about 1 copy per TRIP13 hexamer.
Regarding B7, in data set [8], the Km came out at 9.5 ± 1.3 µM and the kcat is reported as 56.0 +/- 1.5 ATP min^-1. Also, the “stoichiometry N” value in data set [2] was 6.
For the molecule B8, in data set [8], the Km was 19.3 ± 0.8 µM and the kcat was 11.7 +/- 0.1 ATP min^-1. The “stoichiometry N” value in data set [9] amounted to 6.
With B9, in [8], the Km stood at 20.2 ± 1.6 µM and the kcat is recorded as 85.4 +/- 1.2 ATP min^-1. The “stoichiometry N” value in [9] is 6.
Turning to B10, in [10], the Km stood at 28.3 ± 1.9 µM and the kcat is listed as 168.7 +/- 2.3 ATP min^-1. Moreover, the “stoichiometry N” value in [9] turned out to be 6.

The term stoichiometry N denotes the number of molecules, sites or subunits per partner or assembly. Usually Km stands for the concentration of substrate that gives half-maximal velocity.
